Patent US20250179160A1

Key:
[1] = target: recombinant human Pro-Factor D (human) (UniProt P00746); test: ELISA: antibody titrated 3-fold from 3 ug/ml on plate coated with 1 ug/ml recombinant human pro-Factor D; HRP anti-mouse, rat or human secondary; OD450
[2] = target: recombinant human mature Factor D (human) (UniProt P00746); test: ELISA: antibody titrated 3-fold from 3 ug/ml on plate coated with 1 ug/ml recombinant human mature Factor D; HRP anti-mouse, rat or human secondary; OD450

EC50 (read off the curve) [1]: 0.02 µg/mL
EC50 (read off the curve) [2]: 0.04 µg/mL
Substance: MAB18241 (antibody)
